Measured values from article PMC4666391 (Nucleic Acids Research, 2015).

How the values were obtained:
[1] = biological target: T1, pre-RC (MCM2–7 double-hexamer loaded on pUC19-ARS1 DNA) (S. cerevisiae, UniProt P29469 1-868; P24279 1-971; P30665 1-933; P29496 1-775; P53091 1-1017; P38132 …); experiment: SEC; gel-filtration based pre-RC assay: Sld2 and Sld3 added together to pre-RC, no DDK; 40 nM each for 1 min, titrations (Sld2 60 and 90 nM; Sld3 90 nM) and time course 0.5–30 min, over which binding of both decreased; settings: both partners purified
T1 construct: Mcm2, subunit of MCM2–7, S. cerevisiae; Mcm3, subunit of MCM2–7, S. cerevisiae; Mcm4, subunit of MCM2–7, S. cerevisiae; Mcm5, subunit of MCM2–7, S. cerevisiae; Mcm6, subunit of MCM2–7, S. cerevisiae; Mcm7, subunit of MCM2–7, S. cerevisiae; Loaded around double-stranded plasmid DNA; also called pre-replicative complex; source: assembled in solution from purified ORC, Cdc6, Cdt1 and MCM2–7 (40 nM …)

[2] = biological target: T2, pre-RC (MCM2–7 double-hexamer on DNA) in the presence of DDK (S. cerevisiae, UniProt P29469 1-868; P24279 1-971; P30665 1-933; P29496 1-775; P53091 1-1017; P38132 …, phosphorylated by DDK, sites not printed | phosphorylated by DDK, sites not printed | phosphorylated by DDK, sites not given); experiment: SEC; gel-filtration based pre-RC assay: Sld3 or Sld2 (40 nM) added alone to pre-RC with DDK (5 nM); signal corrected for Mcm2 and compared with the reaction without DDK; settings: both partners purified
T2 construct: Mcm2, subunit of MCM2–7, S. cerevisiae; Mcm3, subunit of MCM2–7, S. cerevisiae; Mcm4, subunit of MCM2–7, S. cerevisiae; Mcm5, subunit of MCM2–7, S. cerevisiae; Mcm6, subunit of MCM2–7, S. cerevisiae; Mcm7, subunit of MCM2–7, S. cerevisiae; DDK was added together with the factors, so the extent of phosphorylation at early times is not known; also called DDK-phosphorylated pre-RC; source: assembled …

B1: Sld2 (purified) (natural protein, S. cerevisiae, UniProt P34252 1-453, looked up)
chain: MYSFELDKLKIELKTWEHDFIDKNKREPTRDDIKSLRTVRQMYKQYSTLKKKQSLQRQKVDTQESVELPAHKKDHDEVVEIGPTPQVYGKAISIFDMNLSPIKPIYMTFTNNIDVNNDNSKTISNESSPRKTILLKSSPADRTLVAEPISSVKRQLNFQMLNASSTRTPTSSPCKNRNGKLVEIKKCSPTINPPLESGKPSGYYGPNSPLKLDEENIHLNISLNSSTKRRLQIAYPSLQKTPSKDQADISTSFSPSPLIRRPLTKSLIELAREHTEIVKEFGVLQEEDIEEEEEGEEGENGYDEKNHEDDFGLEDELIRPKVVKDIFQEDDDNDDSQAREDTFIRKRPKRRKVIRRLRDNDPETETAGFERDVHKELVKLKRRKVAEFLGSTSQISDTEFEHDPEASSGVVSSEQKPTAKRKGRKKYNLVSNNFRRLKLPKKNRFSNGRWGRR
notes: Sld2, S. cerevisiae; it may or may not be the same preparation as GST-Sld2; also called purified Sld2; source: purified
fold reduction of binding when Sld3 is added, against Sld2 alone [1]: ~4 fold | fold increase of binding with DDK, against the pre-RC without DDK [2]: ~2 fold
